The values that follow come from patent US20220144936A1 (SINOCELLTECH, published 2022).

Several values for one entry are separate records, joined by “and”; a condition that tells them apart may be missing. Identical values can stand only once.

For experiment [1], the target named is T1, recombinant human IL17A protein (human, UniProt Q16552 24-155).
T1 construct: Bought from SinoBiological; It was biotinylated in the Octet assay; also called biotinylated IL17A
Nature of the experiment: ELISA: IL17A coated at different concentrations, antibody fixed at 2 µg/mL, anti-human IgG Fc/HRP; EC50 is on the antigen concentration. In general terms: An ELISA detects its analyte on a solid surface through an enzyme-linked reagent.

In experiment [2] the target is T2, mouse mIL17A protein (Sino Biological, Inc.) (mouse, UniProt Q62386 26-158).
T2 construct: also called mouse IL17A protein
T2 sequence (looked up): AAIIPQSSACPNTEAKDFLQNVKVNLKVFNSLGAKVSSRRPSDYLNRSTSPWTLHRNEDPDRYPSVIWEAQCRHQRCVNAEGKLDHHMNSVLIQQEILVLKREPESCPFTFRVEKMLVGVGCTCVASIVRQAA
Nature of the experiment: ELISA, coated antigen, goat anti-human IgG Fc/HRP.

Experiment [3] has as its target T1, recombinant human IL17A protein. Nature of the experiment: cell-based or functional assay.
The target in experiment [4] is T3, recombinant human IL17A/F dimer protein (SinoBiological, Inc., CT047-HNAE) (human, UniProt Q16552 24-155; Q96PD4 31-163). Put plainly: cell-based or functional assay.
Experiment [5] concerns the target T3, recombinant human IL17A/F dimer protein …. Put plainly: ELISA: IL17A/F coated at different concentrations, antibody fixed at 2 µg/mL, anti-human IgG Fc/HRP; EC50 is on the antigen concentration.
The target in experiment [6] is T1, recombinant human IL17A protein. Put plainly: competition ELISA: IL17A coated, competitor IL17RA-His-biotin at 2 µg/mL, antibody varied.
Experiment [7] deals with T3, recombinant human IL17A/F dimer protein …. Put plainly: Octet (BLI), biotinylated IL17A/F, antibody 0.42-3.47 nM. On the technique in general: BLI is a label-free optical method that tracks binding on a fibre tip over time.
Experiment [8] has the same target. Put plainly: competition ELISA: IL17RA-Fc coated (competitor), IL17A/F-Biotin at 0.8 µg/mL, antibody varied.
Experiment [9] has as its target T1, recombinant human IL17A protein. Nature of the experiment: Octet (BLI), biotinylated IL17A, antibody 0.42-3.47 nM.
The target is the same in experiment [10]. Nature of the experiment: cell-based or functional assay. This is another data set of the same source.

T3 sequence (Q16552 24-155 limits assumed, chain 1 of 2): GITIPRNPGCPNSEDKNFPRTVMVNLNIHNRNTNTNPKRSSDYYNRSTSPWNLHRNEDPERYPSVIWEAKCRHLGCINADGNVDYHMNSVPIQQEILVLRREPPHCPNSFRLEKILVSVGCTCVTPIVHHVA
T3 sequence (Q96PD4 31-163 limits assumed, chain 2 of 2): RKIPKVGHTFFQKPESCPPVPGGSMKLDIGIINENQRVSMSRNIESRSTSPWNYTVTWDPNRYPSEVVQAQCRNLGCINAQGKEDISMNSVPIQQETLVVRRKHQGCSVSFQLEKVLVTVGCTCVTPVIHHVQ
T1 sequence (Q16552 24-155 limits assumed): as the sequence (Q16552 24-155 limits assumed, chain 1 of 2) above

B1: humanized antibody IL17A-H069 (antibody, human IgG1, kappa, V domains shown)
VH: EVQLVQSGAEVKKPGATVKISCKASGYTFTDYEMHWVQQAPGHGLEWMGVIHPGGGGTAYNQKFKGRVTITADTSTDTAYMELSSLRSEDTAVYYCTRGDHDGRTDYWGQGTLVTVSS
VL: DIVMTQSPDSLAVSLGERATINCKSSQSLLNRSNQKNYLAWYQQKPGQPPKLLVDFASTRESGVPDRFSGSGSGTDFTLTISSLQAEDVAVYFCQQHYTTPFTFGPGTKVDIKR
notes: Humanized IgG1/kappa made in CHO-K1-GS cells
Take B1: the values for the EC50 in experiment [1] and in [5] were 0.046 µg/mL and 0.0363 µg/mL, respectively. Moreover, the binding result in [2] is “no binding”. For the same molecule, in [3], the “EC50 (µg/mL), blocking IL17A-induced IL6 secretion of HFF cells” value is 0.2 µg/mL and 0.19 µg/mL. Moreover, the “EC50 (µg/mL), blocking IL17A/F-induced IL6 secretion of HFF cells” value in [4] is 1.19 µg/mL and 0.83 µg/mL. Also, the IC50 – broadly, the concentration at which inhibition is half-maximal – in [6] amounted to 0.5 µg/mL; in experiment [8] it was 1.02 µg/mL. In addition, the Kd – broadly, the concentration at which binding is half-saturated – in [7] was determined as 0.537 nM; in experiment [9] it was 0.0288 nM. The koff (as a rule, the rate constant with which the complex falls apart) in experiment [7] worked out at 7.72e-05 s⁻¹; in experiment [9], 1.93e-05 s⁻¹. Also, the kon – broadly, the rate constant with which the complex forms – was 144000 M⁻¹ s⁻¹ in experiment [7] and 671000 M⁻¹ s⁻¹ in experiment [9].

B2: murine antibody IL17A-M069 (antibody, mouse IgG1, V domains shown)
VH: QAHLQQSGAELVRPGASVKLSCKALGYTFTDYEMHWVKQTPVHGLEWIGVIHPGGGGTAYNQKFKGKATLTADKSSSTAYMELSSLTSEDSAVYYCTRGDHDGRTDYWGQGTTLTVSS
VL: DIVMSQSPSSLAMSVGQKVTMNCKSNQSLLNRSNQKNYLAWYQQKPGQSPKLLVDFASTRESGVPDRFIGSGSGTDFSLTISSVQAEDLADYFCQQHYTTPFTFGSGTKLEIK
On to B2, for which the “EC50 of blocking IL17A-induced IL-6 secretion of HFF cells” value in experiment [10] is 0.243 µg/mL.
